According to patent US20040248211A1 (published 2004):

B1: ICAM-R domain 1 peptide NGSQI, residues 72-76 (peptide)
peptide: NGSQI
notes: also called ICAM-R 72-76
B2: ICAM-R domain 3 peptide, residues 271-276 (peptide)
peptide: GERREA
notes: also called ICAM-R 271-276
B3: ICAM-R domain 1 peptide, residues 32-38 (peptide)
peptide: EKIALET
notes: also called ICAM-R 32-38
B4: ICAM-1 domain 3 peptide GDQRL, residues 228-232 (peptide)
peptide: GDQRL
notes: also called ICAM-1 228-232
B5: ICAM-R domain 3 peptide GDQML, residues 230-234 (peptide)
peptide: GDQML
notes: also called ICAM-R 230-234
B6: ICAM-1/IgG chimera (Fc fusion, UniProt P05362 28-480, looked up, not shown: a dimerising Fc or GST)
chain: QTSVSPSKVILPRGGSVLVTCSTSCDQPKLLGIETPLPKKELLLPGNNRKVYELSNVQEDSQPMCYSNCPDGQSTAKTFLTVYWTPERVELAPLPSWQPVGKNLTLRCQVEGGAPRANLTVVLLRGEKELKREPAVGEPAEVTTTVLVRRDHHGANFSCRTELDLRPQGLELFENTSAPYQLQTFVLPATPPQLVSPRVLEVDTQGTVVCSLDGLFPVSEAQVHLALGDQRLNPTVTYGNDSFSAKASVSVTAEDEGTQRLTCAVILGNQSQETLQTVTIYSFPAPNVILTKPEVSEGTEVTVKCEAHPRAKVTLNGVPAQPLGPRAQLLLKATPEDNGRSFSCSATLEVAGQLIHKNQTRELRVLYGPRLDERDCPGNWTWPENSQQTPMCQAWGNPLPELKCLKDGTFPLPIGESVTVTRDLEGTYLCRARSTQGEVTRKVTVNVLSPRYE
notes: also called ICAM-1/Ig fusion protein
B7: ICAM-1 domain 1 peptide DGQST, residues 70-74 (peptide)
peptide: DGQST
notes: also called ICAM-1 70-74
B8: ICAM-R/IgG chimera with domain 3 deleted (Fc fusion)
chain: QEFLLRVEPQNPVLSAGGSLFVNCSTDCPSSEKIALETSLSKELVASGMGWAAFNLSNVTGNSRILCSVYCNGSQITGSSNITVYGLPERVELAPLPPWQPVGQNFTLRCQVEGGSPRTSLTVVLLRWEEELSRQPAVEEPAEVTATVLASRDDHGAPFSCRTELDMQPQGLGLFVNTSAPRQLRTFLGPIVNLSEPTAHEGSTVTVSCMAGARVQVTLDGVPAAAPGQTAQLQLNATESDDGRSFFCSATLEVDGEFLHRNSSVQLRVLYGPKIDRATCPQHLKWKDKTRHVLQCQARGNPYPELRCLKEGSSREVPVGIPFFVNVTHNGTYQCQASSSRGKYTLVVVMDIEAFSSH
notes: also called domain 3 deletion chimera; not shown: human IgG1 hinge, CH2 and CH3

Key:
[1] = molecular target: CD18-independent counter-receptor for ICAM-R on Jurkat cells; test: Jurkat cell adhesion to plate-bound shICAM-R, peptide 1-2 mg/ml
[2] = molecular target: T1, VLA-4 (alpha4/beta1) on cells (UniProt P13612 34-1032; P05556 21-798, limits assumed); test: adhesion of transfected COS cells to immobilized chimera (20 ug/ml coat)
T1 construct: whole, on cells; On Jurkat cells, T cells and COS cells transfected with alpha4 and beta1 cDNAs; also called α4/β1; α4β1

[3] = molecular target: T2, LFA-1 (CD11a/CD18) on cells (human, UniProt P20701 26-1170; P05107 23-769); test: JY cell adhesion to plate-bound chimera
T2 construct: whole, on cells; On SKW3, JY, HL-60 cells, neutrophils and transfected CHO and COS cells; also called CD18/CD11a
T2 sequence (P20701 26-1170, chain 1 of 2): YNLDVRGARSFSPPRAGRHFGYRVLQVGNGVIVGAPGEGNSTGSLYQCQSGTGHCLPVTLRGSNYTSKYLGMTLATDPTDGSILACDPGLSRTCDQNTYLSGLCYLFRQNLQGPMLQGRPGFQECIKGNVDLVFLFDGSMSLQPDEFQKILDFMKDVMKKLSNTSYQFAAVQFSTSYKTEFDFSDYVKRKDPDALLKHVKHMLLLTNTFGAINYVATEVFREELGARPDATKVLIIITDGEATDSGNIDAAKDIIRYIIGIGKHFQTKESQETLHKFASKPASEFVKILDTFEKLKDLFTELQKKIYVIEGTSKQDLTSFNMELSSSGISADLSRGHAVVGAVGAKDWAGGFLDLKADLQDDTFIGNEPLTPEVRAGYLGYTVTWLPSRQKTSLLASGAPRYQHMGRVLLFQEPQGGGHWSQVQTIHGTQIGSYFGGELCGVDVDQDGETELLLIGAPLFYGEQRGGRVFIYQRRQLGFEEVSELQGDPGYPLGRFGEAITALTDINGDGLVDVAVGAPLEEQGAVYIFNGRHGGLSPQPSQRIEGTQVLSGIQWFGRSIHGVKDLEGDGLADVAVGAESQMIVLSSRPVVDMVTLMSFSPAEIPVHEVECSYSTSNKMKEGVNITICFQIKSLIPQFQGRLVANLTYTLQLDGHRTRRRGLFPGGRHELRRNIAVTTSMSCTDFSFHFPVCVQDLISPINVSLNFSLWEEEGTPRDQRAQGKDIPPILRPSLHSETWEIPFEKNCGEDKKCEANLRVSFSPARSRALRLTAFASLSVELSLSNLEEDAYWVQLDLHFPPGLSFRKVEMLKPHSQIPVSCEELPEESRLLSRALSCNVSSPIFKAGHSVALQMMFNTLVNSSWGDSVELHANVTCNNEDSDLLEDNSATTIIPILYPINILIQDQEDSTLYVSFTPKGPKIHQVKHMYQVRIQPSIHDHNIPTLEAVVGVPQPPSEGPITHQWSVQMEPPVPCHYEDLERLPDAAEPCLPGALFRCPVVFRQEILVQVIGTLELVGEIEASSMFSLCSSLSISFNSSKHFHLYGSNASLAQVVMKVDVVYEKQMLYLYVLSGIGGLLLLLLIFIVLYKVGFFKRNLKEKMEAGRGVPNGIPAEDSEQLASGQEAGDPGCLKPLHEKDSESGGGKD
T2 sequence (P05107 23-769, chain 2 of 2): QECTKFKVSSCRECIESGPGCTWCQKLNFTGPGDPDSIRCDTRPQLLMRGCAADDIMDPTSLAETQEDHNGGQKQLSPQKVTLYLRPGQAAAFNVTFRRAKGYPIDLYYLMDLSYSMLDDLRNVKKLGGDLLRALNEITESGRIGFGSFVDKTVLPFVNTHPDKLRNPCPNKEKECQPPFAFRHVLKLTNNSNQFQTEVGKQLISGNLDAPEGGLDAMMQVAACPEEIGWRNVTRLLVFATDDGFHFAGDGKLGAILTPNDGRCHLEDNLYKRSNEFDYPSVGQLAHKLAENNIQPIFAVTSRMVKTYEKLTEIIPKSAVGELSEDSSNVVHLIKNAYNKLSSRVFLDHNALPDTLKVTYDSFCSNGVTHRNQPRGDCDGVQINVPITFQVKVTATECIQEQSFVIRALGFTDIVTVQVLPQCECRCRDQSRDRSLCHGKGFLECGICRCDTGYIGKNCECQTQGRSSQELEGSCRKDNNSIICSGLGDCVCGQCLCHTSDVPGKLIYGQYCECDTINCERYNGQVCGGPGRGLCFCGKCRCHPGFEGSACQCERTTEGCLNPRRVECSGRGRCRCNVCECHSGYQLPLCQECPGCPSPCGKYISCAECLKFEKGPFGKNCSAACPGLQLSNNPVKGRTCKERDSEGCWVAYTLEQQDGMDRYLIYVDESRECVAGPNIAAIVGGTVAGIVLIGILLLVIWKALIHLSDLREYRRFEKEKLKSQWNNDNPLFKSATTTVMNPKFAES

Row | Binder | % Inhibition of cell binding to shICAM-R [1] | also measured
1 | B1 | 17% | 
2 | B2 | 11% | 
3 | B3 | 10% | 
4 | B4 | 22% | 
5 | B5 | 36% | 
6 | B6 |  | binding result [2]: no binding
7 | B7 | 9% | 
8 | B8 |  | binding result [3]: binds
